According to paper PMC7867234:
Where a chain is given by its changes, count along the chain named.

The sequences below were run against T1, OmpR-His6 (Yersinia enterocolitica Ye9) (UniProt P74982) (assay: EMSA). Settings: 50 mM Tris-HCl pH 8.0, 100 mM KCl, 1 mM EDTA, 1 mM DTT, 20 mM MgCl2, 12% glycerol, 100 ug/mL BSA, 0.1% Triton X-100; 22 C, 15 min; 0.05 or 0.3 pmol DNA in ….
T1 sequence: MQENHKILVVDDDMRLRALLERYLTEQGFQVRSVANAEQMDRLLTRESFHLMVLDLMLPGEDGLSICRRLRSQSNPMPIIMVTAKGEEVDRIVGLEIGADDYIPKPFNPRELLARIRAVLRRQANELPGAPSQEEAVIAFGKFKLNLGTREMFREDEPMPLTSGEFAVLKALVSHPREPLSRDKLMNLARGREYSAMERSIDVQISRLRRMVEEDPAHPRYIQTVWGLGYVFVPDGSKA
“CAATCTATTCACGGGGCAACAAAAACGAACAAGATTGATAATTATTTTCATTATCAATTCATCCGGCTAATTGTTACATTTGCAATCAGAAAAAAGGTTTGTGTAAACAGCAAAACTCTTTGCTATAAAGTCAATGTTGTTACTACATCAATACCAGTGAAGGAGTCATTATGCCCGCGGTGAAGAAAAATAAGTTGCGCAATATTTCCCCATCATCCAAACCGATTTATCGCGACCAAATTATGCA (double strand) [PfepA]” was tested, and the binding was “binds”.
“CCCCCTTATTCCAAATGGTTTTTATTTCTCCTTTCTGTTTTTGCAGCAAGAAATAATTCGTCTGTTTGCGACAAAATTGATTTACTTGGGAAATGTAATCATTAAGATTAGCGTTTCTAAAAAATTACAATCAGACACAATTCCTTTCGCAATAGGCCCAAAATGTTAACGTTTTCCCGTTTGTCTCTG (double strand) [PfecA]” was tested, and the binding was “binds”.
With “GGTGGTAAAACAAGCGCAAATAGAAATCAGACTCATTAATTTTAAAAATGAAATCGTAATGAATATTTACTTTTGAGTCTTTAACCTGAGTTGAATATGAAAACGATTCTTACTATTATTATTTTAATCATTATTCATTAGTGGTGGAATTTCTCTGAACTCTGGTTTGCTAATGCGTTATAACGAGAGGCTTACATGCATCTGATCCCACAGCGCTCCTACAAAAT (double strand) [PfeoA]” the binding was “binds more weakly”.

What follows are sequences tested against T2, OmpR-His6 (Yersinia enterocolitica Ye9) (UniProt P74982) (assay: EMSA). Settings: 50 mM Tris-HCl pH 8.0, 100 mM KCl, 1 mM EDTA, 1 mM DTT, 20 mM MgCl2, 12% glycerol, 100 ug/mL BSA, 0.1% Triton X-100; 22 C, 15 min; 0.05 or 0.3 pmol DNA in ….
T2 sequence: T1 sequence with A136T
For “CAATACATTGCATGATTAATCGGGCAAAGTGTGCAATTATATCTTTGTTAACAACCACGGTTTTCATTTGGGGCTAGCAGTTCTATAATGAGACGCAATTGAGAATATTGCGCCACGGATGTCATAGGCTGAACAGCCTTAATTTGAATCGATAGTAACAGGACTGAATCCGCATG (double strand) [F4]”, the binding was “binds more weakly”.
With “CGTTGCTTCTATCCCTCTGGTTATACTCTGTTAAGCCACCCACAGATCCGCACTTTCATCCGTGCAAAATGAAAATAAACTGCTACAAATTTGTAACCTTATACTTTGCAGTCAT (double strand) [F2]” the binding was “binds”.
For “CGTTGCTTCTATCCCTCTGGTTATACTCTGTTAAGCCACCCACAGATCCGCACTTTCATCCGTGCAAAATGAAAATAAACTGCTACAAATTTGTAACCTTATACTTTGCAGTCATATACTTAAATTATGCAACAATCCCATTCATCAATACATTGCATGATTAATCGGGCAAAGTGTGCAATTATATCTTTGTTAACAACCACGGTTTTCATTTGGGGCTAGCAGTTCTATAATGAGACGCAA (double strand) [F23]”, the binding was “binds”.
“GCAGTCATATACTTAAATTATGCAACAATCCCATTCATCAATACATTGCATGATTAATCGGGCAAAGTGTGCAATTATATCTTTGTTAACAACCACGGTTTTCATTTGGGGCTAGCAGTTCTATAATGAGACGCAA (double strand) [F3]” was tested, and the binding was “binds”.
“GCAGTCATATACTTAAATTATGCAACAATCCCATTCATCAATACATTGCATGATTAATCGGGCAAAGTGTGCAATTATATCTTTGTTAACAACCACGGTTTTCATTTGGGGCTAGCAGTTCTATAATGAGACGCAATTGAGAATATTGCGCCACGGATGTCATAGGCTGAACAGCCTTAATTTGAATCGATAGTAACAGGACTGAATCCGCATG (double strand) [F34]” was tested, and the binding was “binds”.
In the case of “GCATGATTAATCGGGCAAAGTGTGCAATTATATCTTTGTTAACAACCACGGTTTTCATTTGGGGCTAGCAGTTCTATAATGAGACGCAATTGAGAATATTGCGCCACGGATGTCATAGGCTGAACAGCC (double strand) [F0]”, the binding is reported as “no binding”.
In the case of “TCATTTTGCACGGATGAAAGTGCGGATCTGTGGGTGGCTTAACAGAGTATAACCAGAGGGATAGAAGCAACGGAAACGCGTGGCAATATTAAATTTCATCCTCGCGTTTCCGACATGACAAATTAACCGGTAATTTCGGCCAGATTCAGTTCT (double strand) [F1]”, the binding is reported as “binds more weakly”.
“TGACAAATGAGCGCGTTGAAGCTTGGGTAAAACAGATCAGCGAAGAACTGAATCTGGCCGAAATTACCGGTTAATTTGTCATGTCGGAAACGCGAGGATGAAATTTAATATTGCCACGCGTTTCCGTTGCTTCTATCCCTCTGGTTATACTCTGTTAAGCCACCCACAGATCCGCACTTTCATCCGTGCAAAATGAAAATAAACTGCTACAAATTTGTAACCTTATACTTTGCAGTCAT (double strand) [F12]” was tested, and the binding was “binds”.
